Here are results for three molecules from patent publication US20200369752A1 (published 2020).

The target in experiment [1] is human monomeric α-Synuclein (UniProt P37840 1-140). Nature of the experiment: sandwich ELISA. (ELISA stands for enzyme-linked immunosorbent assay.)
Experiment [2] has as its target human fibrillar (PFF) α-Synuclein (UniProt P37840 1-140). The experiment is described as follows: sandwich ELISA.

One may read the EC50 as the concentration needed to bring the measured effect to its halfway point.

B1: Syn7031.50.32 (antibody, V domains shown)
VH: EVQLVETGGGLVQPKGSLKLSCAASGFTFNTNAMNWVRQAPGKGLEWVVRIRTKSNNYATYYADSVKDRFTISRDDSQSMLYLQMNNLKTEDTAMYYCVRGGTGTGAMDYWGQGTSVTVSS
VL: DVVMTQTPLSLPVSLGDQASISCRSSQSLVHSNGNTYLHWCLQKPGQSPKLLIYKVSNRFSGVPDRFSGSGSGTDFTLKISRVEAEDLGVYFCSQSTHVPLTFGAGTKLELK
B1: the concentration for a half-maximal effect (EC50) in experiment [1] was 567 nM; in experiment [2], 8.86 nM.

B2: Syn7012.15.32 (antibody, V domains shown)
VH: EVQLVETGGGLVQPKGSLKLSCAASGFTFNTNAMNWVRQAPGKGLEWVVRIRTKSNNYATYYADSVKDRFTISRDDSQSMLYLQMNNLKTEDTAMYYCVRGGTGTGAMDYWGQGTSVTVSS
VL: NIMMTQSPSSLAVSAGEKVTMSCKSSQSVLYSSNQKNYLAWYQQKPGQSPKLLIYWASTRESGVPDRFTGSGSGTDFTLTISSVQAEDLAVYYCHQYLSSYTFGGGTKLEIK
As to B2, the half-maximal effective concentration (EC50) in experiment [1] was 555 nM; in experiment [2], 10.6 nM.

B3: Syn7009.32.40 (antibody, V domains shown)
VH: EVQLVETGGGLVQPKGSLKLSCAASGFTFNTNAMNWVRQAPGKGLEWVVRIRTKSNNYATYYADSVKDRFTISRDDSQSMLYLQMNNLKTEDTAMYYCVRGGTGTGAMDYWGQGTSVTVSS
VL: DVVMTQTPLSLPVSLGDQASISCRSSQSLVHSNGNTYLHWCLQKPGQSPKLLIYKVSNRFSGVPDRFSGSGSGTDFTLKISRVEAEDLGVYFCSQSTHVPLTFGAGTKLELK
For B3, the results for the concentration for a half-maximal effect (EC50) in experiment [1] and in experiment [2] were 947 nM and 10.1 nM, respectively.
